What was measured:
Assay in all cases: IEDB peptide-MHC binding, purified MHC/competitive/radioactivity; ≥ and ≤ were set here for values at or beyond the usual limits of such assays
[1] = molecular target: HLA-A*02:03
[2] = molecular target: HLA-A*02:06
[3] = molecular target: HLA-A*02:02
[4] = molecular target: HLA-A*02:01
[5] = molecular target: HLA-A*68:02
[6] = source organism: Vaccinia virus WR
[7] = source organism: Influenza A virus
[8] = source organism: Hepacivirus hominis
[9] = source organism: Mammarenavirus choriomeningitidis

| Sequence | IC50 [1, 6] [nM] | IC50 [2, 6] [nM] | IC50 [3, 6] [nM] | IC50 [5, 6] [nM] | IC50 ([1]; source organism: SARS-CoV1) [nM] | IC50 ([2]; source organism: SARS-CoV1) [nM] | IC50 ([3]; source organism: SARS-CoV1) [nM] | IC50 ([5]; source organism: SARS-CoV1) [nM] | also measured |
| --- | --- | --- | --- | --- | --- | --- | --- | --- | --- |
| TISGNIYSAL | 89 | 2670 | 9.3 | 19 |  |  |  |  | IC50 [4, 6]: 1110 nM |
| YNAELLVLL |  |  |  |  |  |  |  |  | IC50 [1, 7]: 1790 nM; IC50 [2, 7]: 474 nM; IC50 [3, 7]: 118 nM; IC50 [4, 7]: 609 nM; IC50 [5, 7]: 44 nM |
| TLLCVLAALV |  |  |  |  | 77 | 65 | 4.6 | 4390 | IC50 ([4]; source organism: SARS-CoV1): 29 nM |
| FVLALYSPPL | 38 | 212 | 2.2 | 263 |  |  |  |  | IC50 [4, 6]: 979 nM |
| FVSTMPVET | 391 | 1540 | 1220 | 325 |  |  |  |  | IC50 [4, 6]: 841 nM |
| NLFEKFFPSS |  |  |  |  |  |  |  |  | IC50 [1, 7]: 362 nM; IC50 [2, 7]: 28 nM; IC50 [3, 7]: 415 nM; IC50 [4, 7]: 271 nM; IC50 [5, 7]: 360 nM |
| IVAALVFLI |  |  |  |  | 15 | 1.8 | 0.14 | 0.58 | IC50 ([4]; source organism: SARS-CoV1): 2.1 nM |
| RTFFLTQGA |  |  |  |  |  |  |  |  | IC50 [1, 7]: 158 nM; IC50 [2, 7]: 1990 nM; IC50 [3, 7]: 2010 nM; IC50 [4, 7]: 3110 nM; IC50 [5, 7]: 514 nM |
| DLLNVTYNI | 194 | 1280 | 297 | 212 |  |  |  |  | IC50 [4, 6]: 787 nM |
| SISGVLWTV |  |  |  |  |  |  |  |  | IC50 [1, 8]: 18 nM; IC50 [2, 8]: 53 nM; IC50 [3, 8]: 8.8 nM; IC50 [4, 8]: 11 nM; IC50 [5, 8]: 5.5 nM |
| CVDHPFIYV | 1410 | 148 | 300 | 5.1 |  |  |  |  | IC50 [4, 6]: 546 nM |
| MLFTKFFYL |  |  |  |  | 17 | 1.4 | 0.085 | 0.056 | IC50 ([4]; source organism: SARS-CoV1): 0.17 nM |
| FLDWIKDIMT | 146 | 140 | 424 | 4860 |  |  |  |  | IC50 [4, 6]: 50 nM |
| FSTSAYLISI |  |  |  |  |  |  |  |  | IC50 [1, 9]: 14 nM; IC50 [2, 9]: 3.5 nM; IC50 [3, 9]: 0.68 nM; IC50 [4, 9]: 9 nM; IC50 [5, 9]: 1.4 nM |
| TTLLNETAKV | 0.17 | 1650 | 1640 | 237 |  |  |  |  | IC50 [4, 6]: 2880 nM |
| TVGMSIVCIV | 468 | 200 | 528 | 220 |  |  |  |  | IC50 [4, 6]: 526 nM |
| TSFFYRYGFV |  |  |  |  |  |  |  |  | IC50 [1, 7]: 451 nM; IC50 [2, 7]: 851 nM; IC50 [3, 7]: 1100 nM; IC50 [4, 7]: 1100 nM; IC50 [5, 7]: 0.0096 nM |
| SLVSKHWEL | 36 | 35 | 1.2 | 378 |  |  |  |  | IC50 [4, 6]: 2.7 nM |
| YIWKSYVHI |  |  |  |  | 13 | 8.9 | 86 | 104 | IC50 ([4]; source organism: SARS-CoV1): 24 nM |

| Sequence | IC50 [1, 6] [nM] | IC50 [2, 6] [nM] | IC50 [3, 6] [nM] | IC50 [5, 6] [nM] | IC50 ([1]; source organism: SARS-CoV1) [nM] | IC50 ([2]; source organism: SARS-CoV1) [nM] | IC50 ([3]; source organism: SARS-CoV1) [nM] | IC50 ([5]; source organism: SARS-CoV1) [nM] | also measured |
| --- | --- | --- | --- | --- | --- | --- | --- | --- | --- |
| GLIAIVMVTI |  |  |  |  | 19 | 137 | 7.6 | 1670 | IC50 ([4]; source organism: SARS-CoV1): 61 nM |
| KLLYAAEMV | 54 | 18 | 58 | 2810 |  |  |  |  | IC50 [4, 6]: 48 nM |
| FISGIQYLA |  |  |  |  |  |  |  |  | IC50 [1, 8]: 832 nM; IC50 [2, 8]: 1340 nM; IC50 [3, 8]: 8.6 nM; IC50 [5, 8]: 12 nM |
| TLMNVITLV |  |  |  |  | 0.25 | 0.7 | 0.34 | 13 |  |
| MLLRSAIGQV |  |  |  |  |  |  |  |  | IC50 [1, 7]: 7 nM; IC50 [2, 7]: 242 nM; IC50 [3, 7]: 1390 nM; IC50 [5, 7]: 1710 nM |
| IIGHIGHHYI | 186 | 1350 | 400 | 222 |  |  |  |  |  |
| VLAWLYAAV |  |  |  |  | 0.31 | 8.8 | 0.097 | 37 |  |
| KTIAVSVYGA | 224 | 427 | 366 | 235 |  |  |  |  |  |
| FLLVTLAIL |  |  |  |  | 0.97 | 0.48 | 0.64 | 1900 |  |
| TLNEDLLEI |  |  |  |  | 2.2 | 56 | 1.4 | 1460 |  |
| FTYASALWEI |  |  |  |  | 6 | 2.5 | 1.6 | 1.7 |  |
| SMWALVISV |  |  |  |  | 4.4 | 0.79 | 6.1 | 252 |  |
| FLTSLLILV |  |  |  |  | 12 | 3.3 | 2.2 | 260 |  |
| SLFIESSICL | 293 | 982 | 99 | 2160 |  |  |  |  |  |
| YLNTPGLPV |  |  |  |  |  |  |  |  | IC50 [1, 8]: 12 nM; IC50 [2, 8]: 847 nM; IC50 [3, 8]: 9.3 nM; IC50 [5, 8]: 196 nM |
| RLWHYPCTV |  |  |  |  |  |  |  |  | IC50 [1, 8]: 17 nM; IC50 [2, 8]: 131 nM; IC50 [3, 8]: 165 nM; IC50 [5, 8]: 4310 nM |
| FNMLSTVLGV |  |  |  |  |  |  |  |  | IC50 [1, 7]: 11 nM; IC50 [2, 7]: 31 nM; IC50 [3, 7]: 16 nM; IC50 [5, 7]: 860 nM |
| MTSTRTIILV | 920 | 217 | 1980 | 173 |  |  |  |  |  |
| FLITGVFDI |  |  |  |  | 0.76 | 1.5 | 0.69 | 62 |  |

— the Immune Epitope Database (IEDB)
